Assay results from the supplement of paper PMC10567573.

B1: TRIM63 (parent)
chain: QRITQEQEKKLSFIEALIQQYQEQ

Variants of: B1
Assay: protein stability index of a GFP-peptide fusion (GPS, HEK-293T) (PSI 1-6); higher = more stable
Details: c terminus: a fixed tail appended
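Note: lentivirally expressed fusions sorted by FACS into six bins by GFP to DsRed ratio, PSI derived from sequencing read proportions per bin multiplied by bin number.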

First: QRITREQEKKLSFIEALIQQYQEQ [Q5R]
Second: QRITSEQEKKLSFIEALIQQYQEQ [Q5S]
The protein stability index of the first is higher: 2.24 for the first, 2.17 for the second.

Going from QRITTEQEKKLSFIEALIQQYQEQ [Q5T] to QRITVEQEKKLSFIEALIQQYQEQ [Q5V], the protein stability index falls from 2.58 to 1.94.

First: QRITWEQEKKLSFIEALIQQYQEQ [Q5W]
Second: QRITYEQEKKLSFIEALIQQYQEQ [Q5Y]
The protein stability index of the first is lower: 1.24 for the first, 2.27 for the second.

Going from QRITQAQEKKLSFIEALIQQYQEQ [E6A] to QRITQCQEKKLSFIEALIQQYQEQ [E6C], the protein stability index falls from 2.24 to 1.83.

Going from QRITQDQEKKLSFIEALIQQYQEQ [E6D] to QRITQFQEKKLSFIEALIQQYQEQ [E6F], the protein stability index falls from 2.12 to 1.9.

Compared with QRITQGQEKKLSFIEALIQQYQEQ [E6G], QRITQHQEKKLSFIEALIQQYQEQ [E6H] is lower in protein stability index: 2.39 for the first, 1.71 for the second.

Compared with QRITQIQEKKLSFIEALIQQYQEQ [E6I], QRITQKQEKKLSFIEALIQQYQEQ [E6K] is higher in protein stability index: 1.62 for the first, 2 for the second.

Compared with QRITQLQEKKLSFIEALIQQYQEQ [E6L], QRITQMQEKKLSFIEALIQQYQEQ [E6M] is higher in protein stability index: 1.8 for the first, 2.27 for the second.

Going from QRITQNQEKKLSFIEALIQQYQEQ [E6N] to QRITQPQEKKLSFIEALIQQYQEQ [E6P], the protein stability index rises from 1.73 to 1.97.

First: QRITQQQEKKLSFIEALIQQYQEQ [E6Q]
Second: QRITQRQEKKLSFIEALIQQYQEQ [E6R]
The protein stability index of the first is lower: 1.75 for the first, 1.88 for the second.

Compared with QRITQSQEKKLSFIEALIQQYQEQ [E6S], QRITQTQEKKLSFIEALIQQYQEQ [E6T] is lower in protein stability index: 2.09 for the first, 1.7 for the second.

Compared with QRITQVQEKKLSFIEALIQQYQEQ [E6V], QRITQWQEKKLSFIEALIQQYQEQ [E6W] is lower in protein stability index: 1.81 for the first, 1.43 for the second.

Compared with QRITQEAEKKLSFIEALIQQYQEQ [Q7A], QRITQECEKKLSFIEALIQQYQEQ [Q7C] is higher in protein stability index: 2.16 for the first, 2.83 for the second.

Going from QRITQEDEKKLSFIEALIQQYQEQ [Q7D] to QRITQEEEKKLSFIEALIQQYQEQ [Q7E], the protein stability index falls from 3.02 to 2.76.

Going from QRITQEFEKKLSFIEALIQQYQEQ [Q7F] to QRITQEGEKKLSFIEALIQQYQEQ [Q7G], the protein stability index falls from 2.02 to 1.83.

First: QRITQEHEKKLSFIEALIQQYQEQ [Q7H]
Second: QRITQEIEKKLSFIEALIQQYQEQ [Q7I]
The protein stability index of the first is lower: 2.32 for the first, 4.42 for the second.

First: QRITQEKEKKLSFIEALIQQYQEQ [Q7K]
Second: QRITQELEKKLSFIEALIQQYQEQ [Q7L]
The protein stability index of the first is lower: 1.96 for the first, 3.44 for the second.

Going from QRITQEMEKKLSFIEALIQQYQEQ [Q7M] to QRITQENEKKLSFIEALIQQYQEQ [Q7N], the protein stability index rises from 2.46 to 3.1.

First: QRITQEPEKKLSFIEALIQQYQEQ [Q7P]
Second: QRITQEREKKLSFIEALIQQYQEQ [Q7R]
The protein stability index of the first is higher: 2.31 for the first, 2.29 for the second.

Going from QRITQESEKKLSFIEALIQQYQEQ [Q7S] to QRITQETEKKLSFIEALIQQYQEQ [Q7T], the protein stability index rises from 2.86 to 3.54.

First: QRITQEVEKKLSFIEALIQQYQEQ [Q7V]
Second: QRITQEWEKKLSFIEALIQQYQEQ [Q7W]
The protein stability index of the first is lower: 3.28 for the first, 3.76 for the second.

First: QRITQEYEKKLSFIEALIQQYQEQ [Q7Y]
Second: QRITQEQAKKLSFIEALIQQYQEQ [E8A]
The protein stability index of the first is lower: 2.12 for the first, 2.18 for the second.

Compared with QRITQEQCKKLSFIEALIQQYQEQ [E8C], QRITQEQDKKLSFIEALIQQYQEQ [E8D] is lower in protein stability index: 2.09 for the first, 1.95 for the second.

Compared with QRITQEQFKKLSFIEALIQQYQEQ [E8F], QRITQEQGKKLSFIEALIQQYQEQ [E8G] is lower in protein stability index: 2.03 for the first, 1.87 for the second.

First: QRITQEQHKKLSFIEALIQQYQEQ [E8H]
Second: QRITQEQIKKLSFIEALIQQYQEQ [E8I]
The protein stability index of the first is lower: 1.75 for the first, 1.9 for the second.

Compared with QRITQEQKKKLSFIEALIQQYQEQ [E8K], QRITQEQLKKLSFIEALIQQYQEQ [E8L] is lower in protein stability index: 2.12 for the first, 1.86 for the second.

Going from QRITQEQMKKLSFIEALIQQYQEQ [E8M] to QRITQEQNKKLSFIEALIQQYQEQ [E8N], the protein stability index rises from 1.62 to 1.97.

First: QRITQEQPKKLSFIEALIQQYQEQ [E8P]
Second: QRITQEQQKKLSFIEALIQQYQEQ [E8Q]
The protein stability index of the first is lower: 1.66 for the first, 2.12 for the second.

Going from QRITQEQRKKLSFIEALIQQYQEQ [E8R] to QRITQEQSKKLSFIEALIQQYQEQ [E8S], the protein stability index rises from 1.56 to 2.17.

Going from QRITQEQTKKLSFIEALIQQYQEQ [E8T] to QRITQEQYKKLSFIEALIQQYQEQ [E8Y], the protein stability index falls from 2.28 to 1.82.

Going from QRITQEQEAKLSFIEALIQQYQEQ [K9A] to QRITQEQECKLSFIEALIQQYQEQ [K9C], the protein stability index falls from 2.6 to 2.29.

Going from QRITQEQEDKLSFIEALIQQYQEQ [K9D] to QRITQEQEEKLSFIEALIQQYQEQ [K9E], the protein stability index rises from 2.77 to 3.27.

QRITQEQEFKLSFIEALIQQYQEQ [K9F] and QRITQEQEGKLSFIEALIQQYQEQ [K9G] are the same in protein stability index: 2.78 for the first, 2.78 for the second.

Compared with QRITQEQEHKLSFIEALIQQYQEQ [K9H], QRITQEQEIKLSFIEALIQQYQEQ [K9I] is lower in protein stability index: 2.6 for the first, 1.79 for the second.

Going from QRITQEQELKLSFIEALIQQYQEQ [K9L] to QRITQEQEMKLSFIEALIQQYQEQ [K9M], the protein stability index rises from 1.88 to 2.44.

Compared with QRITQEQEPKLSFIEALIQQYQEQ [K9P], QRITQEQEQKLSFIEALIQQYQEQ [K9Q] is lower in protein stability index: 3.01 for the first, 2.82 for the second.

First: QRITQEQERKLSFIEALIQQYQEQ [K9R]
Second: QRITQEQESKLSFIEALIQQYQEQ [K9S]
The protein stability index of the first is higher: 2.74 for the first, 2.7 for the second.

Compared with QRITQEQETKLSFIEALIQQYQEQ [K9T], QRITQEQEVKLSFIEALIQQYQEQ [K9V] is lower in protein stability index: 2.41 for the first, 2.22 for the second.

Going from QRITQEQEWKLSFIEALIQQYQEQ [K9W] to QRITQEQEYKLSFIEALIQQYQEQ [K9Y], the protein stability index falls from 3.8 to 2.2.

Going from QRITQEQEKALSFIEALIQQYQEQ [K10A] to QRITQEQEKCLSFIEALIQQYQEQ [K10C], the protein stability index falls from 2.1 to 2.04.

Going from QRITQEQEKDLSFIEALIQQYQEQ [K10D] to QRITQEQEKELSFIEALIQQYQEQ [K10E], the protein stability index falls from 3.67 to 3.

Going from QRITQEQEKFLSFIEALIQQYQEQ [K10F] to QRITQEQEKGLSFIEALIQQYQEQ [K10G], the protein stability index rises from 2.1 to 3.58.

Going from QRITQEQEKHLSFIEALIQQYQEQ [K10H] to QRITQEQEKILSFIEALIQQYQEQ [K10I], the protein stability index falls from 2.7 to 2.57.

Compared with QRITQEQEKLLSFIEALIQQYQEQ [K10L], QRITQEQEKNLSFIEALIQQYQEQ [K10N] is higher in protein stability index: 1.72 for the first, 3 for the second.

First: QRITQEQEKPLSFIEALIQQYQEQ [K10P]
Second: QRITQEQEKQLSFIEALIQQYQEQ [K10Q]
The protein stability index of the first is higher: 2.77 for the first, 1.95 for the second.

Compared with QRITQEQEKRLSFIEALIQQYQEQ [K10R], QRITQEQEKSLSFIEALIQQYQEQ [K10S] is higher in protein stability index: 2.47 for the first, 2.73 for the second.

Compared with QRITQEQEKTLSFIEALIQQYQEQ [K10T], QRITQEQEKVLSFIEALIQQYQEQ [K10V] is lower in protein stability index: 2.2 for the first, 2.02 for the second.
